Paper PMC6588359
One block for each substance: values may come before it.

Legend:
amyloid-β40 (Aβ40) [1] = assay: native MS; native nano-ESI-IMS-MS, positive ionization; Aβ40 alone or 1:1 mol/mol with Aβ_(16–22); samples incubated 5 min at 37°C without agitation, analysed immediately following mixing
amyloid-β40 (Aβ40) [2] = biological target: amyloid-β40 (Aβ40)

Substance: Aβ_(16–22)
percent heterodimers by total ion count (amyloid-β40 (Aβ40) [1]): 1.0 ± 0.5%

ThT fluorescence: average t1/2 of Aβ40 aggregation with sonicated Aβ (16–22) fibrils (amyloid-β40 (Aβ40) [2]): 6.2 h | ThT fluorescence: average t1/2 of Aβ40 aggregation with unfragmented (unsonicated) Aβ (16–22) fibrils (amyloid-β40 (Aβ40) [2]): 7.2 h
Substance: Aβ_(16–22) (peptide)

stoichiometry N (amyloid-β40 (Aβ40) [1]): 1
Substance: amyloid-β40 (Aβ40) (peptide)
